In patent US20220387586A1 (Hoffmann-La Roche, published 2022):

T1: biotinylated-Lag3 (UniProt P18627 23-450, limits assumed, biotinylated)
T1 construct: Probably a human LAG3 ECD construct; also called Lag3 (MHCII/ELISA)
T1 sequence (looked up): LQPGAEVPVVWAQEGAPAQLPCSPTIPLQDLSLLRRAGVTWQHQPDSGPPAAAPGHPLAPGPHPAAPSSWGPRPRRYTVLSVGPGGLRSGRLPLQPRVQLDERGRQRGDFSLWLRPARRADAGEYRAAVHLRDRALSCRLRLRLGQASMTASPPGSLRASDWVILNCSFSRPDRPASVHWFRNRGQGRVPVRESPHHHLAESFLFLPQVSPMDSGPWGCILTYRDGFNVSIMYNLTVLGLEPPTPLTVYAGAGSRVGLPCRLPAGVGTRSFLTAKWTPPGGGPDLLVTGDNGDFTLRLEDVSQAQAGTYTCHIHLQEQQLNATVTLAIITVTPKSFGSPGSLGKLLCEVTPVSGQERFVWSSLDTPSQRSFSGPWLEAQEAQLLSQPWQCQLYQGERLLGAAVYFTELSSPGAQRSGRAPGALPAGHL

T2: LAG3 on cells (recombinant CHO cells expressing Lag3) (human, UniProt P18627 29-525)
T2 construct: The cell ELISA paragraphs say only 'Lag3'; also called CHO-LAG3; Lag3 cells
T2 sequence: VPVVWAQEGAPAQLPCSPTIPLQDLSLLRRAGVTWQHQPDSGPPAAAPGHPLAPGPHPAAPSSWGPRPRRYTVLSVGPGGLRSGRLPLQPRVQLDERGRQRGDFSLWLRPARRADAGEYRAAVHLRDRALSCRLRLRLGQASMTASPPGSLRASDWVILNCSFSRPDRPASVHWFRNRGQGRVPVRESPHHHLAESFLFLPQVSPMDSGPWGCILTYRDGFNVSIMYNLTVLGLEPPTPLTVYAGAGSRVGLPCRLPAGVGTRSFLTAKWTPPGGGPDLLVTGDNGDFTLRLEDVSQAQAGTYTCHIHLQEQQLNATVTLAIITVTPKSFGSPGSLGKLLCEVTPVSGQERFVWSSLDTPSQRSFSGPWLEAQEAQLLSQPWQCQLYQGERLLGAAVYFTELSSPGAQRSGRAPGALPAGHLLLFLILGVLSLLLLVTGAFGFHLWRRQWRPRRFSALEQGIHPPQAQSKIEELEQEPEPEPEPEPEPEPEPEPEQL

T3: human Fc tagged human Lag3 extra cellular domain (human, UniProt P18627 29-450, biotinylated in the epitope binning, the SA CAP SPR and the FACS competition assay)
T3 construct: In-house fusion; also called huLag3-Fc; biotinylated, huFc-tagged huLag3; not shown: human Fc tag
T3 sequence: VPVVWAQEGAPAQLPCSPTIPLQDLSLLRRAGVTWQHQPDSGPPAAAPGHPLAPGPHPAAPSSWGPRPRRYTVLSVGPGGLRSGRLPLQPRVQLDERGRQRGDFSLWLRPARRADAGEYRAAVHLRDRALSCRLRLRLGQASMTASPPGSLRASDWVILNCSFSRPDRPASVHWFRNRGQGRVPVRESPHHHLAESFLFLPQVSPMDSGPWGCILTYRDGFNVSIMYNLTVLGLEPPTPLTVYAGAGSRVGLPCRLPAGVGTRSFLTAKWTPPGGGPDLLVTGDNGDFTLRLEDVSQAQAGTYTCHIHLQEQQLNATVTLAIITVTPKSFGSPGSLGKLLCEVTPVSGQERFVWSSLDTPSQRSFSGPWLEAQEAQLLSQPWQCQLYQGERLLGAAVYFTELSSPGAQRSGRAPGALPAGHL


Legend:
biotinylated-Lag3 = molecular target: T1, biotinylated-Lag3; experiment: ELISA, inhibition of biotinylated-Lag3 binding to MHC-II on A375 cells (competitor MHC-II)
Protocol: 25 μl/well of A375 cells (10000 cells/well) were seeded into tissue culture treated 384-well plates (Corning, 3701) and incubated at 37° C. overnight. […] After washing (1×90 μl in PBST) cells were fixed by addition of 30 μl/well glutaraldehyde to a final concentration of 0.05% (Sigma Cat.No: G5882), 10 min at room temperature. After washing (3×90 μl/well with PBST-buffer) 25 μl/well Poly-HRP40-Streptavidin (Fitzgerald, 65R-S104PHRPx) was added in a 1:2000 or 1:8000 dilution and incubated at RT for 1 h. After washing (3×90 μl/well with PBST-buffer) 25 μl/well TMB substrate (Roche, #11835033001) was added and incubated for 2 to 10 min. Measurement took place on a Tecan Safire 2 instrument at 370/492 nm.

[1] = molecular target: T2, LAG3 on cells (recombinant CHO cells …); experiment: cell ELISA on recombinant CHO cells expressing Lag3
Protocol: After washing (1×90 μl in PBST) cells were fixed by addition of 30 μl/well glutaraldehyde to a final concentration of 0.05% (Sigma Cat.No: G5882), 10 min at room temperature. After washing (3×90 μl/well with PBST-buffer) 25 μl/well goat anti-Human Ig κ chain antibody-HRP conjugate (Milipore, AP502P) was added in a 1:1000 dilution and incubated at RT for 1 h. After washing (3×90 μl/well with PBST-buffer) 25 μl/well TMB substrate (Roche, 11835033001) was added and incubated for 6-10 min. Measurement took place on a Tecan Safire 2 instrument at 370/492 nm.

cynomolgus LAG3 on cells [2] = molecular target: T4, cynomolgus LAG3 on cells (cynomolgus); experiment: flow cytometry on activated cynomolgus PBMC, 10 µg/ml (only 2nd Ab (rb): 5.26)
T4 construct: whole, on cells; also called cyno-LAG-3; cynoLAG3
Protocol: Thus, cynomolgus peripheral blood mononuclear cells (PBMC) were prepared from fresh cynomolgus blood and were then activated by CD3/CD28 pre-treatment (1 μg/ml) for 2-3 days. […] After staining, cells were washed two times with PBS/2% FCS and analyzed on a FACS Fortessa (BD).

cynomolgus LAG3 on cells [3] = molecular target: T4, cynomolgus LAG3 on cells; experiment: flow cytometry on HEK293F cells transfected with cyno-LAG-3, antibody 10 µg/ml
Protocol: 1.5×10⁵ cells/well were seeded into 96-well plates. […] HEK cells were incubated with indicated antibodies for 45 min on ice, washed twice with 200 μl ice-cold PBS buffer containing 2% FBS, before secondary antibody (APC-labelled goat anti-human IgG-kappa, Invitrogen, cat.no. #MH10515) was added (1:50 diluted in FACS-Puffer/well) and further incubated for 30 min on ice. Cells were again washed twice with 200 μl ice-cold PBS/2% FBS buffer before samples were finally resuspended in 150 μl FACS buffer and binding was measured on FACS CANTO-II HTS Module.

[4] = molecular target: T3, human Fc tagged human Lag3 extra …; experiment: FACS, inhibition of biotinylated Lag3:Fc binding to MHC-II on A375 cells (competitor MHC-II); antibody 10 µg/ml
Protocol: This analysis was studied in a FACS competition experiment: A375 cells (ATCC, #CRL-1619) were cultured for 2-3 passages in EM Eagle's medium supplemented with EBSS (PAN, cat.no. #P04-00509), 10% FBS, 2 mM L-Glutamin, 1×NEAA and 1× Sodium Pyruvate. All antibodies, were diluted in FACS buffer to a final concentration of 20 μg/ml in 25 μl (in 96well U-bottom plates). […] A375 cells were washed with PBS and adjusted to 3×10⁶ cells/ml in PBS. 100 μl were seeded per well in a 96well V-bottom plate. Plates were centrifuged and supernatant was removed. […] After this, cells were washed with 200 μl FACS buffer. […] After staining, cells were again washed and then transferred in 150 μl FACS buffer (PBS/2% FBS) to a U-bottom plate and analyzed on a FACS Canto-II using an HTS module.
All antibodies were used at 10 μg/ml final concentration.

[5] = molecular target: T2, LAG3 on cells (recombinant CHO cells …); experiment: cell-based or functional assay

| Binder | IC50 (biotinylated-Lag3) [nM] | CHO-cell ELISA inflexion point [1] [ng/mL] | % positive cyno cells (PBLs) after CD3/CD28 activation (cynomolgus LAG3 on cells [2]) [%] | % pos. (cynomolgus LAG3 on cells [3]) [%] | GeoMean (cynomolgus LAG3 on cells [3]) | % Inhibition [4] [%] | EC50 [nM] in Jurkat LAG3 + SED + Raji (NFAT luciferase), 1st assay [5] [nM] | EC50 [nM] in Jurkat LAG3 + SED + Raji (NFAT luciferase), 2nd assay [5] [nM] | EC50 [nM] in Jurkat LAG3 + SED + Raji (NFAT luciferase), 3rd assay [5] [nM] |
| --- | --- | --- | --- | --- | --- | --- | --- | --- | --- |
| aLAG3(0403) (antibody, V domains shown) VH: EVQLLESGGGLVQPGGSLRLSCAASGFTFDDYTMHWVRQAPGKGLEWVSLVSWDGGGTYYTNSVKGRFTISRDNSKNTLYLQMNSLRAEDTAVYFCAKAITDTSLYGYDYWGQGILVTVSS VL: not shown | 0.9 | 30.9 | 44.2 | 82 | 7460 | 34.9 | – | – | – |
| aLAG3(0417) (antibody, V domains shown, also called aLAG3 (417)) VH: EVQLVESGGGLVQPGGSLRLACAASGFTFSDYAMSWVRQAPGKGLEWVSGIDNSGYYTYYTDSVKGRFTISRDDVKNTLYLQMNSLRAEDTAVYLCTKTHSGLIVNDAFDIWGQGTMVTVSS VL: not shown | 0.9 | 27.8 | 35.3 | 75.9 | 7120 | 59.1 | 1 | – | – |
| aLAG3(0414) (antibody, V domains shown) VH: EVQLLESGGGLVQPGGSLRLSCAASGFIFDDYTMNWVRQAPGKGLEWVAVISWDGGGTYYTDSVKGRFTISRDDFKNTLYLQMNSLRAEDTAVYYCAKGLTDTTLYGSDYWGQGTLVTVSS VL: DIQMTQSPSSLSASVGDRVTITCRASQSISSYLNWYQQKPGKAPKLLIYAASTLQSGVPSRFSGSGSGTDFTLTISSLQPEDFATYYCQQTYSSPLTFGGGTKVEIKG | 0.9 | 48.1 | 43 | 81.6 | 9170 | 67.3 | 1.1 | 1 | 1.8 |

Second part, the binder after the results:

| IC50 (biotinylated-Lag3) [nM] | CHO-cell ELISA inflexion point [1] [ng/mL] | % positive cyno cells (PBLs) after CD3/CD28 activation (cynomolgus LAG3 on cells [2]) [%] | % pos. (cynomolgus LAG3 on cells [3]) [%] | GeoMean (cynomolgus LAG3 on cells [3]) | % Inhibition [4] [%] | EC50 [nM] in Jurkat LAG3 + SED + Raji (NFAT luciferase), 1st assay [5] [nM] | EC50 [nM] in Jurkat LAG3 + SED + Raji (NFAT luciferase), 2nd assay [5] [nM] | EC50 [nM] in Jurkat LAG3 + SED + Raji (NFAT luciferase), 3rd assay [5] [nM] | Binder |
| --- | --- | --- | --- | --- | --- | --- | --- | --- | --- |
| 0.8 | 41.3 | 46.6 | 88.6 | 11000 | 45.6 | 1.1 | 1 | – | aLAG3(0411) (antibody, V domains shown, also called aLAG3 (411)) VH: EVHLLESGGGLVQPGGSLRLSCAASGFIVDDYTMNWVRQAPGKGLEWVSVISWDGGATYYADSVKGRFTISRDDFKNTLYLQMNSLRAEDTAVYYCAKGLTDDTLYGSDYWGQGTLVTVSS VL: DIQMTQSPSSLSASVGDRVTITCRASQSIVSYLNWYQQKPGKAPKLLIYASSSLQSGVPSRFSGSGSGTDFTLTISSLQPEDFATYYCQQTYSTPLTFGGGTKVEIK |
| 0.9 | 37.2 | 38.9 | 67.9 | 4220 | 68.6 | 3.1 | 2.5 | 3.5 | aLAG3(0416) (antibody, V domains shown) VH: EVQLVESGGGLVQPGGSLRLACAASGFTFSDYAMSWVRQAPGKGLEWVSGIDNSGYYTYYTDSVKGRFTISRDDVKNTLYLQMNSLRAEDTAVYLCTKTHSGLIVNDAFDIWGQGTMVTVSS VL: DIQLTQSPSSLSASVGDRVTITCRASQSISSYLNWYQQKPGKAPKLLIYDASSLESGVPSRFSGSGSGTDATLTISSLQPEDFATYYCQQSYSTPLTFGGGTKVEIKG |
